In article PMC10659534 (Research Square, 2023):

B1: H7.HK3 (antibody, V domains shown)
VH: QVQLVQSGSELKRPGASVKVSCRASGYTFTSYTINWVRQAPGQGLEWMGWINTSTGDPTYAQGFTGRFVFSLDTSVSTAYLEISRLKAEDTAVYYCARAFGLTVVRGGIVGVWGQGTTVTVSS
VL: not shown
notes: also called H7.HK3 mAb
B2: H7.HK4 (antibody, V domains shown)
VH: QVQLQESGPGLVKPSETLSLTCTVSGGSVRSASYAWSWIRQPPGKGLEWIGDIYYSGTTNYNPSLKSRVTLSVDTAKNRFSLRLRSVTAADTAVYHCARERYYYGSSGDFDYWGQGTLVTVSS
VL: DIQMTQSPSSLSASVGDRVTITCRASQGIRNYLAWFQQKPGQAPKSLIFAASSLHTGVPSRFSGSGSGTDFTLTISSLQPEDFATYYCQHYNSYPPTFGQGTKLEIK
notes: also called H7.HK4 mAb
B3: H7.HK2 (antibody, V domains shown)
VH: QVQLQGSGPGLLRPSETLSLTCSVSGVSINSYYWSWVRQPPGKALEWIGYIYYSGNTNYNPSLESRVTISVDRSKNQFSLKMTSVTAADTARYFCARQGIFGDYGSDYWGPGTLVTVSS
VL: DIVMTQSPLSLPVTPGEPASISCRSNQSLQHSNGYVHLDWYRQKPGQSPHLLIYLGFNRASGVPDRFSGGGSGTDFTLKISRVEAEDVGVYYCMQGLQTPFTFGPGTTVDLK
notes: also called H7.HK2 mAb; H7.HK2 human IgG1
B4: H7.HK1 (antibody, V domains shown)
VH: QVQLQESGPGLVKPSETLSLTCSVSGGSINSYYWTWIRQPPGKGLEWVGYIYHSGSTSYNPSLKSRITISVAPSKNHFSLELTSMTAADTAVYYCARLGGHGDYGSDYWGQGTLVTVSS
VL: DIVMTQSPVSLPVTPGEPASISCNSSQSLLHSNGYAHLDWYLQKPGQSPKLMIYLGLNRAFGVPDRFSGSGSGTDFTLKISRVEAEDVGVYYCMQALQTPFTFGPGTRVDIK
notes: also called H7.HK1 mAb; H7.HK1 human IgG1

The binders below were run against H15N8 HA (Influenza A virus H15N8, strain not …, UniProt Q82565, strain) (assay: ELISA). Conditions: both partners purified.

| Binder | binding result |
| --- | --- |
| B1 | binds |
| B2 | binds |

Each binder was assayed against T1, soluble recombinant H7N9 HA based on A/Shanghai/2/2013 (Influenza A virus A/Shanghai/2/2013 …, UniProt R4NN21) (assay: ELISA). Conditions: both partners purified.
T1 construct: source: bought: Immune Technologies, New York, NY

| Binder | binding result |
| --- | --- |
| B3 | binds |
| B1 | binds |
| B2 | binds |
| B4 | binds |

These binders were tested against T2, recombinant H7N7 HA based on A/Netherlands/219/2003 (Influenza A virus …, UniProt Q6VMK1) (assay: ELISA). Conditions: both partners purified.
T2 construct: source: bought: Immune Technologies, New York, NY

| Binder | binding result |
| --- | --- |
| B3 | binds |
| B1 | binds |
| B2 | binds |
| B4 | binds |

These binders were tested against H7N9 HA1 based on A/Shanghai/2/2013 (Influenza A virus A/Shanghai/2/2013 …, UniProt R4NN21, strain) (assay: ELISA). Conditions: both partners purified.

| Binder | binding result |
| --- | --- |
| B3 | binds |
| B1 | binds |
| B2 | no binding |
| B4 | binds |

What follows are binders tested against H7N9 HA (A/Shanghai/2/2013) pre-treated with Endoglycosidase H (Influenza A virus A/Shanghai/2/2013 …, UniProt R4NN21) (assay: ELISA). Conditions: both partners purified.

| Binder | binding result |
| --- | --- |
| B3 | binds |
| B1 | binds |
| B2 | binds |
| B4 | binds |
